Experimental data from patent US20070275001A1, “Rational Design and Engineering of Proteins and Peptides for Immunomodulation” (Arizona Board of Regents, priority 2004, published 2007).
No end group written: not given here.

Columns and labels:
[1] = corresponding value for the original scaffold protein; cited from earlier work
[2] = Chemical denaturation with guanidinium hydrochloride monitored by CD at 222 nm (thermodynamic stability); format: physicochemical
Protocol: The thermodynamic stability of the proteins was assessed by chemical denaturation studies, in which the CD signal at 222 nm was monitored at increasing concentrations of denaturant agent, guanidinium hydrochloride (FIG. 7B). A 1 cm path length rectangular quartz cell was used. The cell holder was temperature controlled at 25° C. The buffer was 10 mM potassium phosphate, pH 7.0. The bandwidth was 1.00 nm. At each GdnHCl concentration, cell chamber was equilibrated for 6 minutes, then data were collected. The curve is described by the equation: ΔGobs=ΔGH2O+m[GdnHCl] in which ΔGobs is the free energy for the two state unfolding equilibrium observed at a given concentration of GdnHCl, ΔGH2O is the free energy of denaturation extrapolated to zero GdnHCl concentration, m is a constant that provide a measure of the cooperativity of the process.
The resulting sigmoidal curve was analyzed to extrapolate the free energy of folding, ΔG, estimated to be −4.2 Kcal/mol; the corresponding ΔG for 1LQ7 is −4.6 Kcal/mol.

[3] = test system: macrophages; assay: Quantification of phagocytosis of IgG-opsonized FITC latex beads by flow cytometry (in vitro macrophage activation test); format: cell-based; settings: cells stimulated overnight, then 30' with FITC beads conjugated with IgG
Protocol: The present invention discloses a method for rapid, quantitative in vitro testing for macrophage activation. Phagocytosis is a cytoskeleton-dependent process of engulfment of large particles. Phagocytes use various surface receptors to bind and internalize the foreign particles for processing the pathogens in lysosomes (phagolysosomes) for presentation of antigens to the immune system. The effects of Gc-MAF with both positive and negative controls of phagocytosis are determined. As positive controls, macrophages are also stimulated with Beta-1,3 glucans, a well-known immune stimulator, for functional comparison. Specifically, curdlan, linear (1,3)-Beta-D-glucans are used. […] Once the cells are suspended in the culture medium, quantification of phagocytosis is accomplished by flow cytometry. One unique feature of flow cytometry is that it measures fluorescence per cell or particle. FIG. 8 illustrates the quantification of phagocytosis by flow cytometry. […] A FACSCalibur (FACS=Fluorescence Activated Cell Sorter) system (Becton Dickinson) equipped with an air-cooled argon ion laser (488 nm, 15 mW output) is used for this study. Forward light scatter (FSC) and 90° light scatter (SSC) were measured at 488 nm and fluorescence emissions (FL parameters) were collected using the FSC as the triggering signal. Fluorescence data was reported by CellQuest software (Becton Dickinson). […]

[4] = test system: macrophages; settings: cited from earlier work

1LQ7: stable designed three-helix bundle scaffold from the Protein Data Bank, originally designed at the University of Pennsylvania (chain 1 GSRVKALEEKVKALEEKVKALGGGG; chain 2 RIEELKKKWEELKKKIEELGGGG; chain 3 EVKKVEEEVKKLEEEIKKL; not fully specified (N-terminus); also: helices are one chain joined by GGGG loops)
free energy of folding, ΔG (scaffold) [1]: -19.2 kJ/mol

MM1: 69 residue three-helix bundle peptide: scaffold 1LQ7 with both loops replaced by Gc-MAF Domain III loop; non-glycosylated analog, negative control (chain 1 Ac-GSRVKALEEKVKALEEKVKALGNAT; chain 2 PTELAKKKWEELKKKIEELGNATPT; chain 3 EVKKVEEEVKKLEEEIKKL-NH2; not fully specified (N-terminus); also: helices are one chain joined by the loops, non-glycosylated)
free energy of folding, ΔG ([2]; GdnHCl denaturation, 25° C., 10 mM potassium phosphate, pH 7.0, extrapolated to zero GdnHCl): -17.6 kJ/mol
free energy of folding relative to that of the original scaffold protein, 1LQ7 ([2]; difference from 1LQ7): ≤ 30%
aggregation state ([2]; helical content at room temperature and free energy of folding independent of concentration, corroborated by equilibrium sedimentation): monomeric

B1: Gc-MAF: serum glycoprotein macrophage activating factor, formed from Vitamin D Binding Protein by post-translation modifications (protein, UniProt P02774 17-474, looked up)
Vitamin D-binding protein: LERGRDYEKNKVCKEFSHLGKEDFTSLSLVLYSRKFPSGTFEQVSQLVKEVVSLTEACCAEGADPDCYDTRTSALSAKSCESNSPFPVHPGTAECCTKEGLERKLCMAALKHQPQEFPTYVEPTNDEICEAFRKDPKEYANQFMWEYSTNYGQAPLSLLVSYTKSYLSMVGSCCTSASPTVCFLKERLQLKHLSLLTTLSNRVCSQYAAYGEKKSRLSNLIKLAQKVPTADLEDVLPLAEDITNILSKCCESASEDCMAKELPEHTVKLCDNLSTKNSKFEDCCQEKTAMDVFVCTYFMPAAQLPELPDVELPTNKDVCDPGNTKVMDKYTFELSRRTHLPEVFLSKVLEPTLKSLGECCDVEDSTTCFNAKGPLLKKELSSFIDKGQELCADYSENTFTEYKKKLAERLKAKLPDATPTELAKLVNKHSDFASNCCSINSPPLYCDSEIDAELKNIL
modifications: deglycosylated macrophage activating form
mean fluorescence intensity ([3]; FL1 channel, non-stimulated control 543±149): 724±155
percentage of cells positive to phagocytosis (M2) ([3]; non-stimulated control 43.6±10.3%): 57.5±6.6%
time to macrophage activation ([4]; enzymatically activated Gc-MAF given to Ehrlich ascite tumor-bearing mice): less than 6 hr
time to substantially increased initiation of antibody production ([4]; injection of Gc-MAF): ≤ 48 h
